Target: T1, CD3 epsilon homodimer protein (UniProt P07766 23-126)
T1 construct: Construct of the homodimer protein is not described; also called CD3 (CD3 epsilon)
Test: SPR (Biacore T200), CD3 epsilon homodimer on CM4 chip, one-arm antibody as analyte; ratio to unaltered CE115HA000;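 also: surface plasmon resonance run at 25 °C with HBS-EP+ as running buffer, CD3 epsilon homodimer attached by amine coupling, antibody passed over as analyte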

T1 sequence (P07766 23-126): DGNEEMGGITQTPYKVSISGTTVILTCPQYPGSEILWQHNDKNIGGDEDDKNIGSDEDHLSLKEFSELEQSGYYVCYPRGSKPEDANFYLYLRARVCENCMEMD

Binder	KD ratio (KD value of CE115HA000/KD value of the altered form)
CE115HA000 G98D one-arm antibody (antibody, human IgG1, kappa, L234A L235A, N297A, name in Kabat numbering, one-arm antibody) heavy: QVQLVESGGGVVQPGRSLRLSCAASGFTFSNAWMHWVRQAPGKGLEWVAQIKAKSNNYATYYAESVKGRFTISRDDSKNSLYLQMNSLKTEDTAVYYCRYVHYDAYYGVDAWGQGTTVTVSSASTKGPSVFPLAPSSKSTSGGTAALGCLVKDYFPEPVTVSWNSGALTSGVHTFPAVLQSSGLYSLSSVVTVPSSSLGTQTYICNVNHKPSNTKVDKKVEPKSCDKTHTCPPCPAPEAAGGPSVFLFPPKPKDTLMISRTPEVTCVVVDVSHEDPEVKFNWYVDGVEVHNAKTKPREEQYASTYRVVSVLTVLHQDWLNGKEYKCKVSNKALPAPIEKTISKAKGQPREPQVYTLPPSRCELTKNQVSLSCAVKGFYPSDIAVEWESNGQPENNYKTTPPVLDSDGSFFLVSKLTVDKSRWQQGNVFSCSVMHEALHNHYTQKSLSLSPDYKDDDDK EPKSSDKTHTCPPCPAPELLGGPSVFLFPPKPKDTLMISRTPEVTCVVVDVSHEDPEVKFNWYVDGVEVHNAKTKPREEQYNSTYRVVSVLTVLHQDWLNGKEYKCKVSNKALPAPIEKTISKAKGQPREPQVCTLPPSRDELTKNQVSLWCLVKGFYPSDIAVEWESNGQPENNYKTTPPVLDSDGSFFLYSKLTVDKSRWQQGNVFSCSVMHEALHNRYTQKSLSLSP light: DIVMTQSPLSLPVTPGEPASISCRSSQSLVHSNRNTYLHWYQQKPGQAPRLLIYKVSNRFSGVPDRFSGSGSGTDFTLKISRVEAEDVGVYYCGQGTQVPYTFGQGTKLEIKRTVAAPSVFIFPPSDEQLKSGTASVVCLLNNFYPREAKVQWKVDNALQSGNSQESVTEQDSKDSTYSLSSTLTLSKADYEKHKVYACEVTHQGLSSPVTKSFNRGEC	2.36
CE115HA000 G98H one-arm antibody (antibody, human IgG1, kappa, L234A L235A, N297A, name in Kabat numbering, one-arm antibody) heavy: QVQLVESGGGVVQPGRSLRLSCAASGFTFSNAWMHWVRQAPGKGLEWVAQIKAKSNNYATYYAESVKGRFTISRDDSKNSLYLQMNSLKTEDTAVYYCRYVHYHAYYGVDAWGQGTTVTVSSASTKGPSVFPLAPSSKSTSGGTAALGCLVKDYFPEPVTVSWNSGALTSGVHTFPAVLQSSGLYSLSSVVTVPSSSLGTQTYICNVNHKPSNTKVDKKVEPKSCDKTHTCPPCPAPEAAGGPSVFLFPPKPKDTLMISRTPEVTCVVVDVSHEDPEVKFNWYVDGVEVHNAKTKPREEQYASTYRVVSVLTVLHQDWLNGKEYKCKVSNKALPAPIEKTISKAKGQPREPQVYTLPPSRCELTKNQVSLSCAVKGFYPSDIAVEWESNGQPENNYKTTPPVLDSDGSFFLVSKLTVDKSRWQQGNVFSCSVMHEALHNHYTQKSLSLSPDYKDDDDK EPKSSDKTHTCPPCPAPELLGGPSVFLFPPKPKDTLMISRTPEVTCVVVDVSHEDPEVKFNWYVDGVEVHNAKTKPREEQYNSTYRVVSVLTVLHQDWLNGKEYKCKVSNKALPAPIEKTISKAKGQPREPQVCTLPPSRDELTKNQVSLWCLVKGFYPSDIAVEWESNGQPENNYKTTPPVLDSDGSFFLYSKLTVDKSRWQQGNVFSCSVMHEALHNRYTQKSLSLSP light: DIVMTQSPLSLPVTPGEPASISCRSSQSLVHSNRNTYLHWYQQKPGQAPRLLIYKVSNRFSGVPDRFSGSGSGTDFTLKISRVEAEDVGVYYCGQGTQVPYTFGQGTKLEIKRTVAAPSVFIFPPSDEQLKSGTASVVCLLNNFYPREAKVQWKVDNALQSGNSQESVTEQDSKDSTYSLSSTLTLSKADYEKHKVYACEVTHQGLSSPVTKSFNRGEC	1.14

— patent US20240270846A1 (published 2024)
